# Where no end group is shown, it is not given here.
# B1: rat MASP-2 catalytic fragment CCP1-CCP2-SP (enzyme)
# chain: MTQPCPDPTAPPNGHISPVQATYVLKDSFSVFCKTGFELLQGSVPLKSFTAVCQKDGSWDRPIPECSIIDCGPPDDLPNGHVDYITGPEVTTYKAVIQYSCEETFYTMSSNGKYVCEADGFWTSSKGEKSLPVCKPVCGLSTHTSGGRIIGGQPAKPGDFPWQVLLLGETTAAGALIHDDWVLTAAHAVYGKTEAMSSLDIRMGILKRLSPHYTQAWPEAVFIHEGYTHGAGFDNDIALIKLKNKVTINRNIMPICLPRKEAASLMKTDFVGTVAGWGLTQKGFLARNLMFVDIPIVDHQKCATAYTKQPYPGAKVTVNMLCAGLDAGGKDSCRGDSGGALVFLDNETQRWFVGGIVSWGSINCGGSEQYGVYTKVTNYIPWIENIINNF
# notes: Mw 42309 Da; also called rat MASP-2cf; MASP2cf
# What was measured:
# [1] = target: T1, human MASP-2 enzyme as present in normal human serum (human, UniProt O00187 16-686); experiment: cell-based or functional assay
# [2] = target: B1; experiment: enzyme inhibition, Z-L-Lys-SBzl/DTNB, tight-binding fit, catalytic fragment CCP1-CCP2-SP
# Protocol: (§1) For determining the KI of the inhibitors on MASP enzymes we used catalytic enzyme fragments containing the three C-terminal domains: CCP1-CCP2-SP. The synthetic substrate used in the measurements was Z-L-Lys-SBzl hydrochloride (Sigma, C3647), from which a 10 mM stock solution was prepared. The reactions were performed in a volume of 0.2 ml at room temperature in a buffer consisting of 20 mM HEPES; 145 mM NaCl; 5 mM CaCl₂; 0.05% Triton-X100. The substrate cleaved by the enzyme entered into a reaction with the 5,5′-Dithiobis(2-nitrobenzoic acid) (DTNB, Ellman's reagent, Sigma—D8130) auxiliary substrate present in the solution in 2-fold excess to Z-L-Lys-SBzl. The release of the chromophore group created in this way was monitored via the change of absorbance at 410 nm using a BioTek Synergy H4 multimode microplate reader.
# (§2) A dilution sequence was prepared from the individual inhibitors, the enzyme was added to it, and it was incubated for 2 hours at room temperature. The samples were transferred on a 96-well microtiter plate (Nunc 269620). The reactions were started by adding the mixture of the substrate and the auxiliary substrate to the samples. The concentration of the substrate and the length of the measuring period were chosen so that under the given conditions the enzyme should consume less than 10% of the substrate. In this case we used 250 μM Z-L-Lys-SBzl and 500 μM DTNB in the reactions. In the course of measuring, a method developed for the characterisation of tight-binding inhibitors was used (Empie, 1982). The concentration of the product was measured as a function of reaction time. The slope of the straight line determined for the initial phase of the reaction was normalised with the slope obtained for the uninhibited enzyme reaction, and this value was multiplied with the total enzyme concentration. As a result of this we obtained the free enzyme concentration, which was plotted as a function of the total inhibitor concentration and the Ki value was determined according to the following equation: […]
# (§3) where E is the free (uninhibited) enzyme concentration, and E₀ is the total enzyme concentration. The stock concentration of the inhibitors was determined by titration with bovine trypsin of known concentration. The results were calculated as the average of parallel measurements.
# [3] = target: T2, human MASP-2 catalytic fragment CCP1-CCP2-SP (human, UniProt O00187 287-686, limits assumed); experiment: as above
# T2 construct: domain: CCP1-CCP2-SP; also called human MASP-2cf; human MASP2cf
# Protocol: as §1, §2, §3
# [4] = target: bovine trypsin (Sigma-T1426) (bovine, UniProt P00760 24-246); experiment: fluorometric residual activity, Z-Gly-Pro-Arg-AMC, tight-binding fit
# Protocol: The KI values of the inhibitors on bovine trypsin were also determined. In these experiments, we used bovine trypsin (Sigma—T1426). The concentration of trypsin was determined by fluorescent active-site titration based on Jameson 1973. The measurements were done in 200 μL final assay volume of 50 mM Tris, 10 mM CaCl2, 0.005% Triton X-100 pH 8.0 buffer on 96-well black microtiter plates (Thermo Scientific Sterilin—611F96BK) using a BioTek Synergy H4 multimode microplate reader.
# Constant predefined concentrations of the enzymes were mixed with serial dilutions of the inhibitors and co-incubated at room temperature until reaching equilibrium. The incubation times were 5 h in the case of the protein according to SEQ ID NO: 11, 8 h in the case of TFPI-D2 and the protein according to SEQ ID NO: 17 and 24 h in the case of the protein according to SEQ ID NO: 14. Then, 10 μM (final concentration) of Z-Gly-Pro-Arg-AMC substrate was added to the samples. The concentration of the free enzyme was determined through measuring the residual enzyme activity in a fluorometric kinetic assay at 380 nm excitation wavelength and 460 nm emission wavelength in two parallel experiments. Analyses of the data were done as described above.
# [5] = target: T3, human MASP-3 catalytic fragment CCP1-CCP2-SP (human, UniProt P48740-2 298-728, limits assumed); experiment: enzyme inhibition, Z-L-Lys-SBzl/DTNB, catalytic fragment
# T3 construct: domain: CCP1-CCP2-SP
# T3 sequence (looked up): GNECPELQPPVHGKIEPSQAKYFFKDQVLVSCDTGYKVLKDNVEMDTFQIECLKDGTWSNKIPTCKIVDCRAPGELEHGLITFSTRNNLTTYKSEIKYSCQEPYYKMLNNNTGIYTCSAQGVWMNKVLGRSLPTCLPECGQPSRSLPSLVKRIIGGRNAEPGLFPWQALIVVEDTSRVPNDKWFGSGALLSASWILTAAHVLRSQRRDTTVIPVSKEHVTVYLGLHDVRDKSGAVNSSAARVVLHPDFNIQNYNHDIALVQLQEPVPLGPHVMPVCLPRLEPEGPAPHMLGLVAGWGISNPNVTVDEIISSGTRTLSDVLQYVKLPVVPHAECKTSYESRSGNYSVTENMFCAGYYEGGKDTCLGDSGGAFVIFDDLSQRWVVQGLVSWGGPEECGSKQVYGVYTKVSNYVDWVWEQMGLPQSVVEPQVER
# Protocol: as §1, §2
# [6] = target: T4, human MASP-1 catalytic fragment CCP1-CCP2-SP (human, UniProt P48740 298-699, limits assumed); experiment: as above
# T4 construct: domain: CCP1-CCP2-SP
# T4 sequence (looked up): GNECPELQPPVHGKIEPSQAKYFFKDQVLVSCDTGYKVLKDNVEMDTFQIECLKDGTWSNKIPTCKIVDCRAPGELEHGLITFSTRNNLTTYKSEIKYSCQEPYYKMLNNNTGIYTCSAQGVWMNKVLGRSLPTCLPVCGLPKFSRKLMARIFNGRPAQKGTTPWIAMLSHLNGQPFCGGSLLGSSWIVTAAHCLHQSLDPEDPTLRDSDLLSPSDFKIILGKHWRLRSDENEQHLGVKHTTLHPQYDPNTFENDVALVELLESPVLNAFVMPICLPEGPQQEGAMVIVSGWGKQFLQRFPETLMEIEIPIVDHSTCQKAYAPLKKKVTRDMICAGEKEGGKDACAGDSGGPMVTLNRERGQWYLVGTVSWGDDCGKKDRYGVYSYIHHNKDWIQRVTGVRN
# Protocol: as §1, §2
# [7] = target: T2, human MASP-2 catalytic fragment …; experiment: ratio of Ki values, enzyme inhibition
# Protocol: as §1, §2
# [8] = target: T3, human MASP-3 catalytic fragment …; experiment: enzyme inhibition, Z-L-Lys-SBzl/DTNB, catalytic fragment; approximation based on a single measurement
# Protocol: as §1
# A dilution sequence was prepared from the individual inhibitors, the enzyme was added to it, and it was incubated for 2 hours at room temperature. The samples were transferred on a 96-well microtiter plate (Nunc 269620). […] The concentration of the product was measured as a function of reaction time. The slope of the straight line determined for the initial phase of the reaction was normalised with the slope obtained for the uninhibited enzyme reaction, and this value was multiplied with the total enzyme concentration. […]
# [9] = target: rat MASP-2 as present in rat serum (rat, UniProt Q9JJS8 20-685); experiment: cell-based or functional assay
# [10] = target: B1; experiment: ratio of Ki values, enzyme inhibition
# Protocol: as §1, §2
# [11] = target: T5, TFPI-D2, second Kunitz domain (residues 121-178) of human Tissue Factor Pathway Inhibitor-1 (human, UniProt P10646 121-178); experiment: enzyme inhibition
# T5 construct: Recombinant, made as m1; also called parental TFPI-D2; human TFPI-D2
# T5 sequence: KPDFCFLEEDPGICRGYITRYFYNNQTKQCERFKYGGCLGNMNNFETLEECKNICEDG
# [12] = target: T1, human MASP-2 enzyme as present in …; experiment: cell-based or functional assay; remark: listed apart in the source
# T1 sequence (O00187 16-686 limits assumed): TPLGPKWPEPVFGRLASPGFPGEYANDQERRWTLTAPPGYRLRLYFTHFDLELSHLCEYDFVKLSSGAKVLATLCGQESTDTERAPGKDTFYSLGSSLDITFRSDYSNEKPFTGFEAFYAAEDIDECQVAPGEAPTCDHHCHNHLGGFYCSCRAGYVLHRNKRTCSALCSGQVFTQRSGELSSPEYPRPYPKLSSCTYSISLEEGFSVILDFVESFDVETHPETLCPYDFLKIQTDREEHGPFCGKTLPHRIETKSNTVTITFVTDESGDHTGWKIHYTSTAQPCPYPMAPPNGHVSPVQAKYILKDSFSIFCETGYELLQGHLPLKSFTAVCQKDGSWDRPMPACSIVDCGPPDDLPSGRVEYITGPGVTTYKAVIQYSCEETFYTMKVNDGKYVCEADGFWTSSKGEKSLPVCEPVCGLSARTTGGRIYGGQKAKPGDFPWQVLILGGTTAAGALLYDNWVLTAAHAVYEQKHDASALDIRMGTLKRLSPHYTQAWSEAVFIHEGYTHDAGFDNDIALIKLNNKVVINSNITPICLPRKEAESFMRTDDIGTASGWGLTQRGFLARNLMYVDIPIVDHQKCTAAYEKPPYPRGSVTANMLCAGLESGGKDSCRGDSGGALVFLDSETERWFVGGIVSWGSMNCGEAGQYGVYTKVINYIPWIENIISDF
# bovine trypsin (Sigma-T1426), sequence (P00760 24-246): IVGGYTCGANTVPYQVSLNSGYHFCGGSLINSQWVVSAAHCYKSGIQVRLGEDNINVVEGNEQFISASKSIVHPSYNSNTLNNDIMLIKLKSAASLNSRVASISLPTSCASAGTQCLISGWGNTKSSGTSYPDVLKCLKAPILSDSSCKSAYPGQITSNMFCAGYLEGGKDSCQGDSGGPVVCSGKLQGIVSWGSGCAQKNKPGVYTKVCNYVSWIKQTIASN
# T2 sequence (O00187 287-686 limits assumed): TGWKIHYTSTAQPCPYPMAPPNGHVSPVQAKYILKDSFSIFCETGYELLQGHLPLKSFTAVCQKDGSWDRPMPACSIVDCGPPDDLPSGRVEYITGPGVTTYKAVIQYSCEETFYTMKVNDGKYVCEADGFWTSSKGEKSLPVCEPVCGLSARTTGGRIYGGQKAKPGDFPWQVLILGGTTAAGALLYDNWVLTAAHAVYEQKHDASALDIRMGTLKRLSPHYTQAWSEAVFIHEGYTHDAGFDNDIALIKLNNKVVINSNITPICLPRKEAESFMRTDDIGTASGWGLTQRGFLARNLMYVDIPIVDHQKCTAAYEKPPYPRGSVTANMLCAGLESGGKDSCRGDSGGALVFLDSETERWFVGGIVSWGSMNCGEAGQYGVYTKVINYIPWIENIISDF
Binder,"IC50 (nM), lectin pathway activity in diluted human serum (WIELISA, C5b-9) [1] [nM]",Ki [2] [nM],Ki [3] [nM],Ki [4] [nM],binding result [5],binding result [6],fold more potent than SGMI-2 [7] [fold],Ki [8] [nM],"IC50 (nM), C3 deposition, lectin pathway in diluted rat serum on mannan [9] [nM]","IC50 (nM), C4 deposition, lectin pathway in diluted rat serum on mannan [9] [nM]","IC50 (nM), C5b-9 deposition, lectin pathway in diluted rat serum on mannan [9] [nM]",fold higher binding affinity than human TFPI-D2 [10] [fold],fold more potent than SGMI-2 [10] [fold],fold reduction of binding affinity against the protein of SEQ ID NO: 11 [7] [fold],binding result [11],fold of the lectin pathway IC50 against SGMI-2 [12] [fold]
"protein according to SEQ ID NO: 11 (TFPI-D2 variant with the inhibitor loop FCRAVKR) (designed binder, ends and bridges not checked; cysteine pairing not given here, Made in E. coli as a His6-S100A4 fusion and freed by TEV protease) KPDFCFLEEDPGFCRAVKRRYFYNNQTKQCERFKYGGCLGNMNNFETLEECKNICEDG",35,640,2,0.094,no binding,no binding,3,,,,,,,,,
"protein according to SEQ ID NO: 14 (TFPI-D2 variant with the inhibitor loop PCRAVKR) (designed binder, ends and bridges not checked; cysteine pairing not given here, Made as m1) KPDFCFLEEDPGPCRAVKRRYFYNNQTKQCERFKYGGCLGNMNNFETLEECKNICEDG",90,7.2,7.9,0.004,,no binding,,~30000,869,108,940,25,~3,4,,
B1,,,,,,,,,,,,,,,binds,
"protein according to SEQ ID NO: 17 (TFPI-D2 variant with the inhibitor loop VCRAVKR) (designed binder, ends and bridges not checked; cysteine pairing not given here, Made as m1) KPDFCFLEEDPGVCRAVKRRYFYNNQTKQCERFKYGGCLGNMNNFETLEECKNICEDG",380,7.5,36.7,0.017,no binding,no binding,,,,,,25,~3,18,,2
"GSGEVTCEPGTTFKDKCNTCRCGSDGKSAVCTKLWCNQ (designed binder, Comparator from WO 2012/007777) [SGMI-2 (SGCI-based MASP inhibitor 2)]",174,22.7,8.1,100,,no binding,,,2240,457,4000,,,,,

# From patent US20200131249A1 (EVOLVERITAS KFT, published 2020)
